Measured values as given in the supplement of paper PMC9170038.

Test system: MS2 coat protein
Experiment: apparent KD of MS2 coat protein; designed switch direction (-1 OFF switch, 1 ON switch): -1; higher = weaker reporter binding
Summary of the method: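 Apparent KD, taken as the median over clusters for each design, was obtained by curve-fitting normalised cluster fluorescence. Designed RNA switches had been transcribed on Illumina chips by stalled E. coli RNA polymerase and titrated with SNAP-549-labelled MS2 coat protein, doubling from 0.7 or 1.5 nM to 3 µM.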

[1] = input ligand: microRNA oligo, concentration not stated

Row | Sequence | apparent KD of MS2 coat protein (input ligand: FMN 200 uM) | apparent KD of MS2 coat protein (input ligand: none) | apparent KD of MS2 coat protein [1]
1 | UCCUCACAUGAGGAUCACCCAUGUUAGGAUAUCCACCGUUGAUGGUGCCGAAUCGGUAGGAGAAGGAACAUACA [EX1 B.18] (Eterna round: R97, puzzle: Exclusion 1) | 58.8 nM | 24.1 nM | –
2 | GGGUGACAUGAGGAUCACCCAUGUCAGGAUAUGGGCUCGGGCUCGAAAGGGUCUGGGUCUAGAAGGGACUGCCC [-36.1, -35.1 kcal, 22%A (-3 GC series)] (Eterna round: R97, puzzle: Exclusion 1) | 137 nM | 67 nM | –
3 | UUGUUGUGUGUAGGAUAUGCAUAUUAUUAUUAUGCAGAAGGACAUGAGGAUCACCCAUGUAUAUUAUUAUUAUAUAUUAUAUAU [Title] (Eterna round: R96, puzzle: Exclusion NG 1) | – | – | 22.6 nM
4 | CUGAGGUAGCGGUCCUAUGACAUGAGGAUCACCCAUGUACCUUGCUACAAGCUUUUUGCUCGUCUUAUGAUUCUCGG [JL Atriat mod 8] (Eterna round: R96, puzzle: Sensor v3, turn-off variant 1) | 81.3 nM | 82.7 nM | 154 nM
5 | AGCGCCAUCGUGAGAUGGCGUAUUACAUGAGGAUCACCCAUGUAGGAUAUCGAUUGCUUUGCAGUCGAGAAGGACAUGUUUUAG [JL ENG3 3.80 Mod E] (Eterna round: R96, puzzle: Exclusion NG 3) | 200 nM | 74.3 nM | 69.4 nM
6 | CAGCUGAAAGUCAGGAUAUCUAGAGCCUCGGCUCUAGAGAAGGGACAUGAGGAUCACCCAUGUGGUCACAGCUG [BmEx4/5-A2] (Eterna round: R97, puzzle: Brourd's mod of Exclusion 4) | 93.5 nM | 619 nM | –
7 | CAAUAACAAGCGAGAUCCUACAUGAGGAUCACCCAUGUGCUCGUCUUAAAAGGUACUGUGACGAAAGUCACGGUACC [Eli 87 + Mat D67 3] (Eterna round: R97, puzzle: Sensor, turn-off variant 1) | 16.9 nM | 23 nM | –
8 | AGAUUACUGCGAGGAUAUACAUGAGGAUCACCCAUGUGGUGGUGUGAGGCAAAGCCUCACACCAUGUAGAAGGCGCAGUAAUCA [Mat - Exclusion NG 2 - Mod of JL - D22] (Eterna round: R96, puzzle: Exclusion NG 2) | 150 nM | 44.5 nM | 23.3 nM
9 | UUGCAGUCGUCAGGAUAUAGUAUUACGGCCUUUCAUUUCUUCAUACAUGAGGAUCACCCAUGUCGCUAGAAGGGCUUAUCGCUU [salish99_ExNG2_r04_108] (Eterna round: R96, puzzle: Exclusion NG 2) | – | – | 11.1 nM
10 | GGGCGCUUAGGAUAUACAUGAGGAUCACCCAUGUGGCUCUCCACGUUGCAUAACAUUCGUAGAAGGAAGCGCAU [Eternabot (L1) Solution 69] (Eterna round: R97, puzzle: Exclusion 3) | 252 nM | 35.8 nM | –
11 | GCUAGAGCAGGAUAUCUAGAUCCUCACAUGAGGAUCACCCAUGUAGUCGAAAGACUAAGAAGAGAAGGGCUCUAGC [Omei Ex5 E17] (Eterna round: R97, puzzle: Exclusion 5) | 133 nM | 8.81 nM | –
12 | CGCCUGUUAGGAUAUUAGUAGUAGUCAGAAUAGACUAUUACUGAGAAGGAACAUGAGGAUCACCCAUGUUGGCG [Eli x4 4.13] (Eterna round: R97, puzzle: Exclusion 4) | 19.9 nM | 15.5 nM | –
13 | UUGUUGUAUGUAGGAUAUGCAUAUUAUUAUUGUGCAGAAGGACAUGAGGAUCACCCAUGUAUAUUAUUAUUAUAUGUUAUAUAU [Title] (Eterna round: R96, puzzle: Exclusion NG 1) | – | – | 22.1 nM
14 | CUGAAUAGAGGAUAUUGUACUGCUGACAUGAGGAUCACCCAUGUAUGUUAACUCGGCCGUCGAGAAGGCUAACAAA [BotMod 13 - Jieux - Exclusion 5] (Eterna round: R97, puzzle: Exclusion 5) | 16.9 nM | 41.2 nM | –
